The values that follow come from patent publication US20240101708A1 (Genentech, published 2024).

One assay addresses RNF128 (GRAIL). Nature of the assay: flow cytometry of live HT29 cells with stably integrated, doxycycline-induced gD-tagged ligase, stained with anti-gD antibody and APC; Parental HT29 APC-A+ 0.27.
The target of the next assay is RNF13. Described as above.
A further assay addresses RNF43. Described as above.
Assay [1] has as its target T1, recombinant human ZNRF3 extracellular domain (human, UniProt Q9ULT6 56-219).
T1 construct: extracellular domain; also called huZNRF3; human ZNRF3 ECD
T1 sequence (looked up): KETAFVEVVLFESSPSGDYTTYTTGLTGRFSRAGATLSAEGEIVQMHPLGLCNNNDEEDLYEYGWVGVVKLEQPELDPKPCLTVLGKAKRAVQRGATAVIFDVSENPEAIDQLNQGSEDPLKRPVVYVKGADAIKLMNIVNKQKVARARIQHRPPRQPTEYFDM
Nature of the assay: SPR Biacore 8K; antibody captured on Protein A; ZNRF3 ECD analyte; 25 C. The procedure: Antibodies were screened for binding to recombinant human RNF43 and ZNRF3 ECDs using a Biacore® 8 k instrument (GE Life Sciences). Briefly, antibodies diluted to 1 μg/ml in 1×HBSP buffer (Cytiva, BR100368) were captured on a Sensor Chip Protein A (GE Life Sciences) using a flow rate of 10 μl/minute and a contact time of 60 seconds. Binding of recombinant human RNF43 and ZNRF3 extracellular domain to the captured antibodies was analyzed at 25° C. using a single cycle kinetics method with a flow rate of 30 μl/minute, a contact time of 180 seconds and a dissociation time of 600 seconds. The concentration of recombinant human RNF43 and ZNRF3 extracellular domain in the single cycle kinetics were 0, 0.8, 4, 20, and 100 nM. Between cycles, the chip was regenerated using 10 mM Glycine HCl pH 1.5 injected for 30 seconds at 30 μl/minute. Data were evaluated using Biacore 8K Evaluation software (GE Life Sciences). Kinetic constants were obtained using a 1:1 binding model with the parameter RI set to zero. Cell surface ligase antibodies with sub-nanomolar affinities may provide advantages in certain instances, for example, in the degradation efficiency which is correlated with the durability of the ternary complex as shown in FIG. 5D.
Background: In SPR one partner is held on a chip, and binding of the other changes the refractive index at the surface.

Positions count from the first letter of the chain named.

Chain of RNF128 (GRAIL) (transmembrane E3 ubiquitin ligase with N-terminal gD tag, as listed by the source limits assumed): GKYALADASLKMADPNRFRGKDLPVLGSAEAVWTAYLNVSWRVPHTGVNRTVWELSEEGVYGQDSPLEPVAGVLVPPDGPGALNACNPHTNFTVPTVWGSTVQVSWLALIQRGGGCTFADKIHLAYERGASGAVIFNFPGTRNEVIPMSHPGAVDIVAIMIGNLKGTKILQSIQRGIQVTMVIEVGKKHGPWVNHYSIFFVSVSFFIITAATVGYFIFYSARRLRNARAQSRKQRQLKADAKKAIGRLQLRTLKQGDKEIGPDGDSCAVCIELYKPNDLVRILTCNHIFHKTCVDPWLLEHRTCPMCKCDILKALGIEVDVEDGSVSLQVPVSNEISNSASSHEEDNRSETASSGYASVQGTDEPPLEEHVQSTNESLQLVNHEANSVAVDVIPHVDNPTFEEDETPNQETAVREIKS
Chain of RNF43 (transmembrane E3 ubiquitin ligase with N-terminal gD tag, as listed by the source limits assumed): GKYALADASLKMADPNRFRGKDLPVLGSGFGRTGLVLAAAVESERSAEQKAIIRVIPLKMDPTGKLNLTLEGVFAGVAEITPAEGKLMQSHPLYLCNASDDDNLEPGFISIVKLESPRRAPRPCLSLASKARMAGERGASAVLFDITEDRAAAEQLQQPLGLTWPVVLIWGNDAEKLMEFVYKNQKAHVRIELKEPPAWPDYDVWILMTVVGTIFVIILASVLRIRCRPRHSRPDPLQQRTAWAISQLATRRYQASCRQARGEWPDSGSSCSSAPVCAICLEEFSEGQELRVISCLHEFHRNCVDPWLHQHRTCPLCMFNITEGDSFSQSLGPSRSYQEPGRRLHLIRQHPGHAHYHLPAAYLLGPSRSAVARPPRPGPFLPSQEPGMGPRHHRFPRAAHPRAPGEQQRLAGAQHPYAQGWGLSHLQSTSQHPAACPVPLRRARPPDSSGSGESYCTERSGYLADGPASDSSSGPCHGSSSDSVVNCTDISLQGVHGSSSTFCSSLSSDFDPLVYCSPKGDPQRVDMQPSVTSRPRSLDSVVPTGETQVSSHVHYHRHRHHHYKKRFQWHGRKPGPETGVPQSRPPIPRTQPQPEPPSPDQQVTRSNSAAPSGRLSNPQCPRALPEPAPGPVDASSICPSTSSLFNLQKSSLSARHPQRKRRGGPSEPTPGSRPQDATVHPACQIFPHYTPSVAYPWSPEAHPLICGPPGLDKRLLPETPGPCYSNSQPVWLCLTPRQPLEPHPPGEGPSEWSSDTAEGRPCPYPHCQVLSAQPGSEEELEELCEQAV
Chain of RNF13 (transmembrane E3 ubiquitin ligase with N-terminal gD tag, as listed by the source limits assumed): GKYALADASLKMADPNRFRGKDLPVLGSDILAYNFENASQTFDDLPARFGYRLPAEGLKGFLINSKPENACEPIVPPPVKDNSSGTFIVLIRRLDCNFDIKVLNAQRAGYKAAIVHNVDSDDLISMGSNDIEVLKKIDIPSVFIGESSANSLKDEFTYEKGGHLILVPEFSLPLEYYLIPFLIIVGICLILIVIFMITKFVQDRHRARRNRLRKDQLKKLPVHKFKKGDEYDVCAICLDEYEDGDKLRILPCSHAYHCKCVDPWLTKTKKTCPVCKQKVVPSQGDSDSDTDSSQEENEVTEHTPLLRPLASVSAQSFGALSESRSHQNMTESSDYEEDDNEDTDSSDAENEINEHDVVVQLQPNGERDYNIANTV

For anti-gD antibody, the values for the APC-A+ (share of cells in the positive gate; percentage by paragraph 258) with RNF128 (GRAIL), in the assay with RNF13 and with RNF43 were 35, 0.79 and 63, respectively.

B1: ZNRF3-255 (antibody, V domains shown)
VH: EVQLVESGGGLVQPGRSLKLSCAASGFTFSSFTMAWVRQAPKKGLEWVASISSGGGGTYYPDSVKGRFTISRDNAKSTLYLQMDSLRSEDTASYYCATGGFAYWGQGTLVIVSS
VL: DIQMTQSPSSLPASLGDRVTITCRASQDIGSYLRWFQQKPGKSPRLMIYGATSLANGVPSRFSGSRSGSDYSLTINNLESEDMAIYYCLQHNEFPYTFGTGTKLELK
notes: Rat clone; VH/VL only
By Kd is commonly meant the constant that tells how readily two partners part at equilibrium. For B1, the Kd in assay [1] was determined as 0.26 nM.

B2: ZNRF3-253 (antibody, V domains shown)
VH: EVQLVESGGGLVQPERSMKLSCAASGFTFSNYGMAWVRQAPTKGLEWVATINSDGSGTYYRGSVKGRFTISRDNAKSTLYLQMNSLRSDDTATYYCTRGRMLRIISFFDYWGQGVMVTVSS
VL: DIQMTQSPASLSASLGETVSIECLASEDIANDLAWYQQKSGKSPQVLIYAASRVQDGVPSRFSGSGSGTRYSLKITDMQPEDVADYFCQQSYGFPLTFGSGTKLEIK
notes: Rat clone; VH/VL only
In the case of B2, the Kd in assay [1] is 0.483 nM.

B3: ZNRF3-254 (antibody, V domains shown)
VH: EVQLVESGGGLVQPERSMKLSCAASGFTFNNYGMAWVRQTPTKGLEWVATINSDGSGTHYRGSVKGRFTISRDNAKGTLYLQMHNLRSDDTATYYCARGRILRIITYFDSWGQGVVVTVSS
VL: B2 VL with T18S, K42R, Y49H
notes: Rat clone; VH/VL only
With B3, the Kd in assay [1] turned out to be 0.104 nM.

B4: ZNRF3-300 (antibody, V domains shown)
VH: B2 VH with K76R, S77N, Q82E, M101I, S106T, F107Y
VL: B2 VL with L15V, K74R, T76S, G93S
notes: Rat clone; VH/VL only
Regarding B4, in assay [1], the equilibrium dissociation constant (Kd) was 0.239 nM.

B5: ZNRF3-223 (antibody, V domains shown)
VH: EVQLVESGGGLVQPGESLKLSCSASGFTFSNYGMHWIRQVPGKGLDWVAYITNSGGSLYAAAVKGRFTISRDNAKNTLYLELTSLKSEDTAIYHCARGYSYPGPYWGRGTLVTVSS
VL: DIQVTQSPSSLLASLGERVTITCQTGQSINNYLNWYQQRPGQAPLLLIYFATSLQTGVPSRFSGQYSGRSFTLTITSLEPEDIANYFCLQHYSPPYTFGAGTKLELR
notes: Rat clone; VH/VL only
Turning to B5, the Kd in assay [1] came to 0.0443 nM.

B6: ZNRF3-244 (antibody, V domains shown)
VH: EVQLVESGGGLVQPGKSLKLSCSASGFTFSSYGMHWIRQTPGKGLDWVAYISTNSGTVYADAVKGRFTISRDNAKNTLYLQLNSLQSEDTAIYYCARGYNYPGAYWGQGTLVTVSS
VL: B5 VL with G26S, N30S, Y32N, R39K, L45M, F50Y, V58M, S93N, R107K
notes: Rat clone; VH/VL only
With B6, the Kd in assay [1] was 6.85 nM.

B7: ZNRF3-329 (antibody, V domains shown)
VH: B6 VH with Y32H, T40A, T53N, V58I, A60S, D61A, K64R, A74S, Y79F, Q86K
VL: B5 VL with G26S, N30R, R39K, A43V, L45I, F50Y, G57D, V58M, P94V, R107K
notes: Rat clone; VH/VL only
With B7, the dissociation constant Kd in assay [1] came out at 0.283 nM.

B8: ZNRF3-231 (antibody, V domains shown)
VH: B5 VH with T52S, A61D, T83N, R108Q
VL: B5 VL
notes: Rat clone; VH/VL only
In the case of B8, in assay [1], the Kd was determined as 0.0783 nM.

B9: ZNRF3-270 (antibody, V domains shown)
VH: B5 VH with S87P
VL: B5 VL
notes: Rat clone; VH/VL only
Take B9: the Kd in assay [1] turned out to be 0.0424 nM.

B10: ZNRF3-247 (antibody, V domains shown)
VH: EVQLVGSGEGLVQPGSSMKLSCVASGFTFSNSGMNWIRQAPKKGLEWIALIYYTNTYYADSVKGRFTISRDNSKNTLYLEMNSLRSEDTAMYYCAKRGLTGSVDYWGQGVMVTVSS
VL: DIQMTQSPSFLSASVGDRVTINCKASQNINRYLNWYQQKLGEAPKRLIYDTSNLQTGIPSRFSGSGSGTDFTLTISSLQPEDFATYFCLQHDSFPNTFGTGTKLELK
notes: Rat clone; VH/VL only
Consider B10, for which the Kd in assay [1] was 0.161 nM.

B11: ZNRF3-219 (antibody, V domains shown)
VH: EVQLVESGGGLVQPGRSLKVSCAASGFTFSTFAMAWVRQAPKKGLEWVATITPGGSNTYYPDSVKGRFTISRDNAKSTLYLQMDSLRSEDTANYYCAKCGYPGITSFDYWGQGVMVTVSS
VL: DIQMTQSPSFLSASVGDRVSINCKASQNIGKYLNWYQQELGEAPKRLIYNTNNLQTGIPSRFSGSGSGTDYTLTISGLQPEDFATYFCLQHNGFPLTFGSGTKLEIK
notes: Rat clone; VH/VL only
As for B11, the Kd in assay [1] stood at 1.9 nM.

B12: ZNRF3-287 (antibody, V domains shown)
VH: EVQLVGSGGGLVQPGRSLKISCAASGFTFSYYGMAWVRQAPTRGLEWVATITYNGSKSYYRDSVKGRFTISREYAKSTLYLQMDDLTSEDTATYFCARRTTGMLFDYWGQGVLVTVSS
VL: QAVLTQPNSVSMSLGSTVKLSCTLNSGNIENNFVHWYQQYEGRSPTTMIYNDDKRPDGVPDRFSGSIDSSSNSAFLTINNVEIGDEAIYFCHSFVSSIHIFGGGTKLTVL
notes: Rat clone; VH/VL only
As for B12, in assay [1], the Kd worked out at 0.191 nM.

B13: ZNRF3-265 (antibody, V domains shown)
VH: EVQLVESGGGLVQPGRSMKLSCVASGFSFSKYGMAWVRQAPTKALEWVAIISQDGSRIYYGGSVKGRFTLSRDNEKSTLHLHMNSLRSEDTATYYCARGSILRMITFFDYWGQGVTVTVSS
VL: DIQMTQSPASLSASLGETVSIECLASEGISNDLAWYQQKSGKSPRLLIYAASRLQDGVPSRFSGSGSDTRFSLKISGMHPEDEADYFCQQSYGYPLTFGSGTKLEIK
notes: Rat clone; VH/VL only
As to B13, the Kd in assay [1] is 0.0286 nM.

B14: ZNRF3-222 (antibody, V domains shown)
VH: EVQLVESGGGLVQPGRSLKLSCAVSGFTFSNYGMAWVRQTPTKGLEWVATITYDGSTTYYRDSVKGRFTISRDNAKSALSLQMDSLRSEDTATYHCARQGLGYPFVYWGQGTLVTVSS
VL: DVVMTQTPVSLPVSLGGQASISCRTSQSLVHSNGNTYLHWYLQKPGQSPQLLIYRVSNRFSGVPDRFSGSGSGTDFTLKISRIEPEDLGDYYCLQSTHFPYTFGAGTKLELK
notes: Rat clone; VH/VL only
Regarding B14, the binding result in assay [1] was “no binding”.

B15: ZNRF3-331 (antibody, V domains shown)
VH: QSVEESGGRLVTPGTPLTLTCTVSGFSLSSYAMGWVRQAPGKGLEWIGIIYAGDTTYYASWAKGRFTISETSTTVDLKITSPTTEDTATYFCARKSDDDSDSYLLWGPGTLVTVSS
VL: AYDMTQTPASVEVAVGGTVTIKCQASQSISSYLNWYQQKRGQPPKLLIYDASTLASGVPSRFSGSGSGTEFTLTISGVQCDDAATYYCQQGWSSTNIDNIFGGGTEVVVK
notes: Rabbit clone; VH/VL only
For the molecule B15, in assay [1], the equilibrium dissociation constant (Kd) was found to be 0.2 nM.

B16: ZNRF3-322 (antibody, V domains shown)
VH: EVHLVESGGGLVQPGRSLTLSCVASGFTFNNWWMTWIRQAPGKGLEWVASISHTGGSTSYPDSVKGRFTISRDNAKSTLYLQMTSLRSDDTATYYCTRWGPILRGFDYWGQGVMVTVSS
VL: DVVLTQTPPTLSATIGQSVSISCRSSQSLLHINGNTYVNWLVQRPGQPPQLLFYLVSRLESGVPNRFSGSGSGTDFTLKISGVEAEDLGVYYCVQSTHAPPTFGGGTKLELK
notes: Rat clone; VH/VL only
In the case of B16, the binding result in assay [1] is given as “no binding”.

B17: ZNRF3-296 (antibody, V domains shown)
VH: EVQLVESGGGLVQPGKSLRLSCSASGFTFSNYGLHWIRQAPGKGLDWLGYSSSNSGTVYGDAVKGRVTISRDNAKNTLYLQLNSLKSEDTAIYYCARGYSSSPFAYWGQGTLVTVSS
VL: DIVLTQSPALAVSLGQRVTISCKASQNVDGFGIGYMHWYQQKPGQKPKLLIFAGSNLASGIPARFSGSGSGTDFTLTIDPVETDDIATYYCQQNKDFPLTFGSGSRLEIT
notes: Rat clone; VH/VL only
As for B17, in assay [1], the Kd came out at 0.0371 nM.

B18: ZNRF3-237 (antibody, V domains shown)
VH: QIQLVQSGPELKKPGESVKISCKASGYTFTDYAMHWVKQVPGKGLKWMGWINTYTGKPTYADDFKGRFVFSLEASASTVNLQISNLKNEDTANVFCARGGLLSRGWFAYWGQGTLVTVSS
VL: DIVMTQTPVSLSVSLGGQVSISCRSSQSFVHSDGNSYLSWYLQKPGQSPQLLIYEVSNRLSGVPDRFSGSGSGTDFTLKISRVEHDDLGVYYCGQASKIPLTFGSGTKLEIK
notes: Rat clone; VH/VL only
As to B18, the Kd in assay [1] was found to be 5.3 nM.

B19: ZNRF3-332 (antibody, V domains shown)
VH: QSLEESGGGLVQPEGSLTLTCTASGIDFSTRNYMCWVRQAPGKGLEWVGCIYTSSGGTYYASWVNGRFTISKTSSTTVTLRMTSLTAADTATYFCARGGYVGYGYATYFNLWGPGTLVAVSS
VL: DVVMTQTPASVSEPVGGTVTIKCQASQSISSYLSWYQQKPGQPPKLLIYYVSNLESGVPSRFKGSGSGTEFTLTISDLECADAATYYCQNYYSSSSGWAFGGGTEVVVK
notes: Rabbit clone; VH/VL only
As for B19, in assay [1], the Kd is 1.6 nM.
